Measurements published in US20240209061A1, “FUSION PROTEINS AND USES THEREOF” (Pfizer Inc., priority 2020, published 2024).

Key:
[1] = Pharmacokinetics in huFcRn transgenic mice; details: 0.1 mg/kg IV
Protocol: PK of CD80-Fc fusion proteins was also assessed in transgenic mice expressing the human neonatal Fc receptor (huFcRn) a-chain transgene under the control of its natural human promoter. Female mice were dosed intravenously with CD80-Fc fusion proteins at 0.1 mg/kg, and blood was collected at the timepoints indicated on the graph. Levels of CD80-Fc in mouse plasma were measured as described above.

[2] = system: human peripheral blood mononuclear cells (PBMCs); assay: Human PBMC IL-2 production assay with plate-bound anti-CD3; type: cell-based; details: average of 5 PBMC donors; 1 μg/ml anti-CD3; 48 hours
Protocol: The ability of the variant CD80-Fc fusion proteins to promote IL-2 production in the context of anti-CD3 (to stimulate T cell receptor signaling) in human peripheral blood mononuclear cells (PBMCs) was tested. To bind anti-CD3 antibody on the plate, the anti-human-CD3 (clone HIT3a, BD Pharmingen) was incubated in 96-well plates at 4° C. overnight at 1 μg/ml unless otherwise noted. Human PBMCs were isolated from freshly collected human whole blood using Ficoll-Paque Plus. Human PBMCs (100,000 per well) were incubated with plate-bound anti-CD3 and the indicated concentrations of soluble CD80-Fc fusion protein in RPMI+10% HI-FBS, pen/strep, sodium pyruvate and non-essential amino acids. After 48 hours incubation, supernatants were collected and IL-2 measured by the Quantikine human IL-2 ELISA kit from R&D.
Additional CD80-Fc fusion proteins were tested in the same PBMC assay, at the concentration of anti-human-CD3 (clone HIT3a, BD Pharmingen) noted.

[3] = system: B16F10 murine melanoma cells; assay: B16F10 melanoma model, combination with αPD1 antibody; type: in vivo, mouse; details: CD80-D90Q-E23C-A26C-Fc 3 mg/kg and/or αPD1 Ab 10 mg/kg
Protocol: B16F10 murine melanoma cells (0.5 million) were subcutaneously implanted in the hind flank of female C57BL/6J mice. When tumors reached ˜100 mm3, mice were randomized and dosed with PBS vehicle control, 3 mg/kg CD80-D90Q-E23C-A26C-Fc, and or 10 mg/kg murine αPD1 antibody. CD80-D90Q-E23C-A26C-Fc was dosed on Days 0 and 3, αPD1 antibody was dosed on Days 0, 3 and 6. Tumor volume was determined by caliper measurements obtained in 2 dimensions and calculated as width^2×length/2. Error bars are depicted as ±SEM

[4] = system: peripheral blood mononuclear cells (PBMC); assay: RESTORE cytokine release assay in absence of TCR stimulation; type: cell-based, human; parameters: IFNγ: unit not given beside the values; details: Table 20
Protocol: The ability of variant CD80-Fc fusion proteins to promote cytokine release in the absence of TCR stimulation was assessed in the RESTORE (RESetting T cells to Original Reactivity) assay (Römer et al, Blood, 2011). Freshly isolated peripheral blood mononuclear cells (PBMC) from whole blood of several healthy donors were cultured for 48 hours at […] within RPMI1640 media supplemented with 10% autologous plasma, 10 mM HEPES, 1× GlutaMAX, 1× PenStrep, beta2-mercaptoethanol, NEAA and sodium pyruvate. Following the 48-hour incubation, PBMC were pelleted and resuspended at a final concentration of 10^6/ml with indicated soluble drug. Treatment was allowed for 48 hours then supernatant was harvested and assessed in IL-2 and IFNγ ELISA according to manufacturer's protocol (BioLegend).
Positive controls included CD28 superagonist anti-CD28 clone TGN1412 as IgG1 and IgG4 isotypes and anti-CD3. […] Values shown are the average of 3 technical replicates. D=Donor.

[5] = system: CT26 murine colorectal carcinoma tumor cells; assay: CT26 murine colorectal carcinoma model; type: in vivo, mouse; details: for Day 10 tumor volume: Days 0 and 3; for % tumor growth inhibition: Day 10
Protocol: CT26 murine colorectal carcinoma tumor cells (1×10^6) were subcutaneously implanted in the hind flank of female Balb/c mice. When tumors reached ˜100 mm3 (Day 8), mice were randomized. PBS vehicle control or variant CD80-Fc fusion proteins were dosed intravenously at 0.1 and 1.0 mg/kg on Days 0 and 3. Tumor volume was determined by caliper measurements obtained in 2 dimensions and calculated as width^2×length/2. Error bars are depicted as ±SEM.
IFNγ ELIspot was used to measure tumor-reactive T cells in the spleen in mice treated with CD80-Fc fusion proteins at a 1 mg/kg dose.
Cytotoxic CD8^+ T cells are responsible for killing cancer cells and the measurement of CD8^+ T cells that have infiltrated tumors commonly correlates with efficacy for immune-oncology therapies. For all in vivo studies, tumors were collected ˜1 week after the first dose and dissociated by mincing, followed by incubation in an enzymatic digestion cocktail and homogenization. The resulting cell suspension was filtered and washed, and single cells were stained with antibodies to CD45, CD8, and a viability dye to detect tumor-infiltrating lymphocytes (TILs) by flow cytometry. Data were acquired on a BD LSRFortessa flow cytometer or a Cytek Aurora spectral flow cytometer. Table 31 and FIG. 18 show the amount of tumor-infiltrating CD8+ T cells expressed as a percentage of total immune cells (CD45+). Each value is the average of n=4 mice per group. Treatment with all variant CD80-Fc fusion proteins led to increase in CD8+ TILs in various tumor models.

[6] = Thermal forced aggregation (SEC); type: physicochemical; details: Table 11, 24 hours, PBS
Protocol: To assess the aggregation propensity of variant CD80-Fc fusion proteins, 1 mg/ml of CD80-Fc fusion protein was incubated in PBS at increasing temperatures for 24 hours. The samples were analyzed by SEC on an Agilent 1100 (Agilent Technologies, Germany) HPLC system using a YMC-Pack Diol-200 (YMC, Germany) analytical size exclusion chromatography column and PBS supplemented to 400 mM NaCl as running buffer. % aggregation was calculated from the loss of intact peak area. […] ND=Not Determined.

Substance: CD80-D90Q-E23C-A26C-Fc: disulfide stabilized variant CD80-Fc fusion protein (D90Q, E23C, A26C)
- AUC [1]: 88000 ng·h/mL
- CL [1]: 15.8 mL/day/kg
- T1/2 [1]: 148 h
- Vdss [1]: 0.131 L/kg
- Cmax ([1]; average of 3 animals): 1400 ng/mL
- EC50 [2]: 24.2 ± 10 nM
- Day 10 tumor volume [3]: 1208.8 mm^3
- % tumor growth inhibition ([3]; Day 10): 26.3%
- IFNγ ([4]; D222, 1 μg/ml): 4.0
- IL-2 ([4]; D222, 1 μg/ml): 7.0
- IFNγ ([4]; D222, 10 μg/ml): 4.7
- IL-2 ([4]; D222, 10 μg/ml): 11.0
- IFNγ ([4]; D281, 1 μg/ml): 5.0
- IL-2 ([4]; D281, 1 μg/ml): 2.0
- IFNγ ([4]; D281, 10 μg/ml): 6.3
- IL-2 ([4]; D281, 10 μg/ml): 2.0
- IFNγ ([4]; D462, 1 μg/ml): 7.3
- IL-2 ([4]; D462, 1 μg/ml): 1.7
- IFNγ ([4]; D462, 10 μg/ml): 6.0
- IL-2 ([4]; D462, 10 μg/ml): 2.0
- IFNγ ([4]; D547, 1 μg/ml): 3.3
- IL-2 ([4]; D547, 1 μg/ml): 4.3
- IFNγ ([4]; D547, 10 μg/ml): 5.0
- IL-2 ([4]; D547, 10 μg/ml): 12.0
- Number of tumor regressions ([5]; 0.1 mg/kg): 2/10
- Day 10 tumor volume ([5]; 0.1 mg/kg IV): 388.9 mm^3
- % tumor growth inhibition ([5]; 0.1 mg/kg): 67.53%
- Number of tumor regressions ([5]; 1 mg/kg): 9/10
- Day 10 tumor volume ([5]; 1 mg/kg IV): 197.8 mm^3
- % tumor growth inhibition ([5]; 1 mg/kg): 83.49%
- # IFNγ-producing spots (tumor-reactive T cells in spleen) ([5]; 1 mg/kg, average of n = 4 mice): 523.1875
- % aggregation ([6]; 40° C.): 0.0%
- % aggregation ([6]; 45.3° C.): 0.1%
- % aggregation ([6]; 49.4° C.): 0.1%
- % aggregation ([6]; 54.9° C.): 0.5%
- % aggregation ([6]; 59.1° C.): 26.2%
- % aggregation ([6]; 64° C.): 68.8%
